In assay [1] the target is NS4b full-length (residues 1-249), C-terminal six-histidine tag (dengue virus serotype 1). The assay is described as follows: SEC. In general terms: Size exclusion chromatography separates by hydrodynamic size, large species first.
For assay [2] the target is unchanged. The assay is described as follows: BLI.

We go through 2 substances from PMC9412862.

A word on the stoichiometry N: it is the number of molecules, sites or subunits per partner or assembly. “NS4b full-length (residues 1-249), C-terminal six-histidine tag (natural protein)”: the stoichiometry N in assay [1] came out at 2. A word on the Kd: it is a measure of binding affinity in units of concentration. The low end stands for a tighter complex, the high end for a looser complex. “helicase domain of DENV NS3 (NS3Hel), residues 178-619, C-terminal 6-histidine tag (domain or fragment)”: in assay [2], the equilibrium dissociation constant (Kd) came out at 508 nM.
